Laboratory results taken from paper PMC7367873, “Dissecting the sequence determinants for dephosphorylation by the catalytic subunits of phosphatases PP1 and PP2A” (Nature Communications, 2020).

Experiments:
[1] = system: GFP-14-3-3β and its binding proteins; experiment: GFP-14-3-3β co-IP with LC-MS/MS label-free quantification, untreated versus PP1c-treated; design: species or system human; conditions: PP1 vs untreated; LFQ intensities; 3 replicates each
[2] = system: GFP-14-3-3β; experiment: GFP-14-3-3β co-IP with LC-MS/MS, untreated GFP-14-3-3β versus GFP control (14-3-3 interactome); assay type: binding, human; conditions: untreated vs GFP; LFQ intensities; 3 replicates each

Row | Molecule | Difference (log2), PP1 vs untreated [1] [log2] | Difference (log2), untreated vs GFP [2] [log2]
1 | RASAL2 (protein, UniProt Q9UJF2 1-1139, looked up) Ras GTPase-activating protein …: MQTPEVPAERSPRRRSISGTSTSEKPNSMDTANTSPFKVPGFFSKRLKGSIKRTKSQSKLDRNTSFRLPSLRSTDDRSRGLPKLKESRSHESLLSPCSTVECLDLGRGEPVSVKPLHSSILGQDFCFEVTYLSGSKCFSCNSASERDKWMENLRRTVQPNKDNCRRAENVLRLWIIEAKDLAPKKKYFCELCLDDTLFARTTSKTKADNIFWGEHFEFFSLPPLHSITVHIYKDVEKKKKKDKNNYVGLVNIPTASVTGRQFVEKWYPVSTPTPNKGKTGGPSIRIKSRFQTITILPMEQYKEFAEFVTSNYTMLCSVLEPVISVRNKEELACALVHILQSTGRAKDFLTDLVMSEVDRCGEHDVLIFRENTIATKSIEEYLKLVGQQYLHDALGEFIKALYESDENCEVDPSKCSSSELIDHQSNLKMCCELAFCKIINSYCVFPRELKEVFASWKQQCLNRGKQDISERLISASLFLRFLCPAIMSPSLFNLMQEYPDDRTSRTLTLIAKVIQNLANFAKFGNKEEYMAFMNDFLEHEWGGMKRFLLEISNPDTISNTPGFDGYIDLGRELSVLHSLLWEVVSQLDKGENSFLQATVAKLGPLPRVLADITKSLTNPTPIQQQLRRFTEHNSSPNVSGSLSSGLQKIFEDPTDSDLHKLKSPSQDNTDSYFRGKTLLLVQQASSQSMTYSEKDERESSLPNGRSVSLMDLQDTHAAQVEHASVMLDVPIRLTGSQLSITQVASIKQLRETQSTPQSAPQVRRPLHPALNQPGGLQPLSFQNPVYHLNNPIPAMPKASIDSSLENLSTASSRSQSNSEDFKLSGPSNSSMEDFTKRSTQSEDFSRRHTVPDRHIPLALPRQNSTGQAQIRKVDQGGLGARAKAPPSLPHSASLRSTGSMSVVSAALVAEPVQNGSRSRQQSSSSRESPVPKVRAIQRQQTQQVQSPVDSATMSPVERTAAWVLNNGQYEEDVEETEQNLDEAKHAEKYEQEITKLKERLRVSSRRLEEYERRLLVQEQQMQKLLLEYKARLEDSEERLRRQQEEKDSQMKSIISRLMAVEEELKKDHAEMQAVIDAKQKIIDAQEKRIVSLDSANTRLMSALTQVKERYSMQVRNGISPTNPTKLSITENGEFKNSSC | 0.5963 | 1.812
2 | ATXN2 (protein, UniProt Q99700 1-1313, looked up) Ataxin-2: MRSAAAAPRSPAVATESRRFAAARWPGWRSLQRPARRSGRGGGGAAPGPYPSAAPPPPGPGPPPSRQSSPPSASDCFGSNGNGGGAFRPGSRRLLGLGGPPRPFVVLLLPLASPGAPPAAPTRASPLGARASPPRSGVSLARPAPGCPRPACEPVYGPLTMSLKPQQQQQQQQQQQQQQQQQQQQQQQPPPAAANVRKPGGSGLLASPAAAPSPSSSSVSSSSATAPSSVVAATSGGGRPGLGRGRNSNKGLPQSTISFDGIYANMRMVHILTSVVGSKCEVQVKNGGIYEGVFKTYSPKCDLVLDAAHEKSTESSSGPKREEIMESILFKCSDFVVVQFKDMDSSYAKRDAFTDSAISAKVNGEHKEKDLEPWDAGELTANEELEALENDVSNGWDPNDMFRYNEENYGVVSTYDSSLSSYTVPLERDNSEEFLKREARANQLAEEIESSAQYKARVALENDDRSEEEKYTAVQRNSSEREGHSINTRENKYIPPGQRNREVISWGSGRQNSPRMGQPGSGSMPSRSTSHTSDFNPNSGSDQRVVNGGVPWPSPCPSPSSRPPSRYQSGPNSLPPRAATPTRPPSRPPSRPSRPPSHPSAHGSPAPVSTMPKRMSSEGPPRMSPKAQRHPRNHRVSAGRGSISSGLEFVSHNPPSEAATPPVARTSPSGGTWSSVVSGVPRLSPKTHRPRSPRQNSIGNTPSGPVLASPQAGIIPTEAVAMPIPAASPTPASPASNRAVTPSSEAKDSRLQDQRQNSPAGNKENIKPNETSPSFSKAENKGISPVVSEHRKQIDDLKKFKNDFRLQPSSTSESMDQLLNKNREGEKSRDLIKDKIEPSAKDSFIENSSSNCTSGSSKPNSPSISPSILSNTEHKRGPEVTSQGVQTSSPACKQEKDDKEEKKDAAEQVRKSTLNPNAKEFNPRSFSQPKPSTTPTSPRPQAQPSPSMVGHQQPTPVYTQPVCFAPNMMYPVPVSPGVQPLYPIPMTPMPVNQAKTYRAVPNMPQQRQDQHHQSAMMHPASAAGPPIAATPPAYSTQYVAYSPQQFPNQPLVQHVPHYQSQHPHVYSPVIQGNARMMAPPTHAQPGLVSSSATQYGAHEQTHAMYACPKLPYNKETSPSFYFAISTGSLAQQYAHPNATLHPHTPHPQPSATPTGQQQSQHGGSHPAPSPVQHHQHQAAQALHLASPQQQSAIYHAGLAPTPPSMTPASNTQSPQNSFPAAQQTVFTIHPSHVQPAYTNPPHMAHVPQAHVQSGMVPSHPTAHAPMMLMTTQPPGGPQAALAQSALQPIPVSTTAHFPYMTHPSVQAHHQQQL | 0.5906 | 1.35
3 | CPT1A (protein, UniProt P50416 2-773, looked up) Carnitine …: AEAHQAVAFQFTVTPDGIDLRLSHEALRQIYLSGLHSWKKKFIRFKNGIITGVYPASPSSWLIVVVGVMTTMYAKIDPSLGIIAKINRTLETANCMSSQTKNVVSGVLFGTGLWVALIVTMRYSLKVLLSYHGWMFTEHGKMSRATKIWMGMVKIFSGRKPMLYSFQTSLPRLPVPAVKDTVNRYLQSVRPLMKEEDFKRMTALAQDFAVGLGPRLQWYLKLKSWWATNYVSDWWEEYIYLRGRGPLMVNSNYYAMDLLYILPTHIQAARAGNAIHAILLYRRKLDREEIKPIRLLGSTIPLCSAQWERMFNTSRIPGEETDTIQHMRDSKHIVVYHRGRYFKVWLYHDGRLLKPREMEQQMQRILDNTSEPQPGEARLAALTAGDRVPWARCRQAYFGRGKNKQSLDAVEKAAFFVTLDETEEGYRSEDPDTSMDSYAKSLLHGRCYDRWFDKSFTFVVFKNGKMGLNAEHSWADAPIVAHLWEYVMSIDSLQLGYAEDGHCKGDINPNIPYPTRLQWDIPGECQEVIETSLNTANLLANDVDFHSFPFVAFGKGIIKKCRTSPDAFVQLALQLAHYKDMGKFCLTYEASMTRLFREGRTETVRSCTTESCDFVRAMVDPAQTVEQRLKLFKLASEKHQHMYRLAMTGSGIDRHLFCLYVVSKYLAVESPFLKEVLSEPWRLSTSQTPQQQVELFDLENNPEYVSSGGGFGPVADDGYGVSYILVGENLINFHISSKFSCPETDSHRFGRHLKEAMTDIITLFGLSSNSKK | 0.596 | 1.035
4 | OSBPL8 (protein, UniProt Q9BZF1 1-889, looked up) Oxysterol-binding …: MEGGLADGEPDRTSLLGDSKDVLGPSTVVANSDESQLLTPGKMSQRQGKEAYPTPTKDLHQPSLSPASPHSQGFERGKEDISQNKDESSLSMSKSKSESKLYNGSEKDSSTSSKLTKKESLKVQKKNYREEKKRATKELLSTITDPSVIVMADWLKIRGTLKSWTKLWCVLKPGVLLIYKTQKNGQWVGTVLLNACEIIERPSKKDGFCFKLFHPLEQSIWAVKGPKGEAVGSITQPLPSSYLIIRATSESDGRCWMDALELALKCSSLLKRTMIREGKEHDLSVSSDSTHVTFYGLLRANNLHSGDNFQLNDSEIERQHFKDQDMYSDKSDKENDQEHDESDNEVMGKSEESDTDTSERQDDSYIEPEPVEPLKETTYTEQSHEELGEAGEASQTETVSEENKSLIWTLLKQVRPGMDLSKVVLPTFILEPRSFLDKLSDYYYHADFLSEAALEENPYFRLKKVVKWYLSGFYKKPKGLKKPYNPILGETFRCLWIHPRTNSKTFYIAEQVSHHPPISAFYVSNRKDGFCLSGSILAKSKFYGNSLSAILEGEARLTFLNRGEDYVMTMPYAHCKGILYGTMTLELGGTVNITCQKTGYSAILEFKLKPFLGSSDCVNQISGKLKLGKEVLATLEGHWDSEVFITDKKTDNSEVFWNPTPDIKQWRLIRHTVKFEEQGDFESEKLWQRVTRAINAKDQTEATQEKYVLEEAQRQAARDRKTKNEEWSCKLFELDPLTGEWHYKFADTRPWDPLNDMIQFEKDGVIQTKVKHRTPMVSVPKMKHKPTRQQKKVAKGYSSPEPDIQDSSGSEAQSVKPSTRRKKGIELGDIQSSIESIKQTQEEIKRNIMALRNHLVSSTPATDYFLQQKDYFIIFLLILLQVIINFMFK | 0.5791 | 0.9951
5 | CPM (protein, UniProt P14384 18-423, looked up) Carboxypeptidase M: LDFNYHRQEGMEAFLKTVAQNYSSVTHLHSIGKSVKGRNLWVLVVGRFPKEHRIGIPEFKYVANMHGDETVGRELLLHLIDYLVTSDGKDPEITNLINSTRIHIMPSMNPDGFEAVKKPDCYYSIGRENYNQYDLNRNFPDAFEYNNVSRQPETVAVMKWLKTETFVLSANLHGGALVASYPFDNGVQATGALYSRSLTPDDDVFQYLAHTYASRNPNMKKGDECKNKMNFPNGVTNGYSWYPLQGGMQDYNYIWAQCFEITLELSCCKYPREEKLPSFWNNNKASLIEYIKQVHLGVKGQVFDQNGNPLPNVIVEVQDRKHICPYRTNKYGEYYLLLLPGSYIINVTVPGHDPHITKVIIPEKSQNFSALKKDILLPFQGQLDSIPVSNPSCPMIPLYRNLPDHS | 0.5874 | -1.988
6 | MYO1B (protein, UniProt O43795 1-1136, looked up) Unconventional myosin-Ib: MAKMEVKTSLLDNMIGVGDMVLLEPLNEETFINNLKKRFDHSEIYTYIGSVVISVNPYRSLPIYSPEKVEEYRNRNFYELSPHIFALSDEAYRSLRDQDKDQCILITGESGAGKTEASKLVMSYVAAVCGKGAEVNQVKEQLLQSNPVLEAFGNAKTVRNDNSSRFGKYMDIEFDFKGDPLGGVISNYLLEKSRVVKQPRGERNFHVFYQLLSGASEELLNKLKLERDFSRYNYLSLDSAKVNGVDDAANFRTVRNAMQIVGFMDHEAESVLAVVAAVLKLGNIEFKPESRVNGLDESKIKDKNELKEICELTGIDQSVLERAFSFRTVEAKQEKVSTTLNVAQAYYARDALAKNLYSRLFSWLVNRINESIKAQTKVRKKVMGVLDIYGFEIFEDNSFEQFIINYCNEKLQQIFIELTLKEEQEEYIREDIEWTHIDYFNNAIICDLIENNTNGILAMLDEECLRPGTVTDETFLEKLNQVCATHQHFESRMSKCSRFLNDTSLPHSCFRIQHYAGKVLYQVEGFVDKNNDLLYRDLSQAMWKASHALIKSLFPEGNPAKINLKRPPTAGSQFKASVATLMKNLQTKNPNYIRCIKPNDKKAAHIFNEALVCHQIRYLGLLENVRVRRAGYAFRQAYEPCLERYKMLCKQTWPHWKGPARSGVEVLFNELEIPVEEYSFGRSKIFIRNPRTLFKLEDLRKQRLEDLATLIQKIYRGWKCRTHFLLMKKSQIVIAAWYRRYAQQKRYQQTKSSALVIQSYIRGWKARKILRELKHQKRCKEAVTTIAAYWHGTQARRELRRLKEEARNKHAIAVIWAYWLGSKARRELKRLKEEARRKHAVAVIWAYWLGLKVRREYRKFFRANAGKKIYEFTLQRIVQKYFLEMKNKMPSLSPIDKNWPSRPYLFLDSTHKELKRIFHLWRCKKYRDQFTDQQKLIYEEKLEASELFKDKKALYPSSVGQPFQGAYLEINKNPKYKKLKDAIEEKIIIAEVVNKINRANGKSTSRIFLLTNNNLLLADQKSGQIKSEVPLVDVTKVSMSSQNDGFFAVHLKEGSEAASKGDFLFSSDHLIEMATKLYRTTLSQTKQKLNIEISDEFLVQFRQDKVCVKFIQGNQKNGSVPTCKRKNNRLLEVAVP | 0.5838 | -1.083
